Experiment in all cases: native gel or EMSA
Test [1] has as its target pPL^45-Zn-163 nascent chain (bovine | S. cerevisiae) (UniProt P01239).
For test [2], the target named is pPL-188 nascent chain (bovine) (UniProt P01239).
Test [3] has as its target pPL-223 nascent chain (bovine) (UniProt P01239).
Test [4] deals with pPL-163 nascent chain (bovine) (UniProt P01239).

Here are results for one substance from article PMC4402133.

Regarding “RAMP complex C (~500 kD Sec61/62/63 complex) (from UniProt P38377 1-476; P82009 1-39; P82008 1-33; Q05052 33-445)”, the percent of nascent chains retained in complex C after 1 hour at 24°C in test [1] was 95%; in test [4] it was 88%. For the same substance, the values for the percent of nascent chains in complex C in test [2], in test [3] and in test [4] were 2%, 5% and 2%, respectively.
